The text below walks through data of the supplement of paper PMC9112550, “Optimization of the antimicrobial peptide Bac7 by deep mutational scanning” (BMC Biology, 2022).

The subject of the data set is Escherichia coli TOP10. In words: shrunken log2 fold change of peptide-encoding DNA abundance (4.5 h post-induction vs induction); higher = less antimicrobial activity (less host growth inhibition). The settings on record: time post-induction: 4.5 h; library: site-saturation at positions 5, 18, 19, 20.
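Note: peptides expressed intracellularly from a pBAD plasmid library in pooled LB shake-flask culture, induced with 0.3% L-arabinose, DNA abundance read by NGS, three biological replicates, DESeq2 with apeglm shrinkage.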

Turning to RRIRERPPRLPRPRPRPPWMPRP, the “shrunken log2 fold change” value was -0.22.
For the sequence RRIRKRPPRLPRPRPRPRVDPRP, the “shrunken log2 fold change” value was 0.0968.
With RRIRVRPPRLPRPRPRPRMAPRP the figure was 0.199.
Turning to RRIRPRPPRLPRPRPRPQWEPRP, the “shrunken log2 fold change” value turned out to be 0.155.
With RRIRNRPPRLPRPRPRPICCPRP the figure was -0.062; with RRIRDRPPRLPRPRPRPQLQPRP, -0.16; with RRIRVRPPRLPRPRPRPPRCPRP, 0.324.
With RRIRERPPRLPRPRPRPYHVPRP the figure was 0.0464; with RRIRHRPPRLPRPRPRPVQTPRP, -0.011.
The value for RRIRARPPRLPRPRPRPGGHPRP was 0.115; that for RRIRYRPPRLPRPRPRPVAPPRP was -0.0629.
With RRIRKRPPRLPRPRPRPRAFPRP, the “shrunken log2 fold change” value is 0.326.
With RRIRWRPPRLPRPRPRPQGKPRP the figure was 0.127; with RRIRDRPPRLPRPRPRPGERPRP, 0.276; with RRIRKRPPRLPRPRPRPTFVPRP, 0.362.
In the case of RRIRLRPPRLPRPRPRPSMGPRP, the “shrunken log2 fold change” value was determined as 0.0483.
For the sequence RRIRKRPPRLPRPRPRPTLGPRP, the “shrunken log2 fold change” value was 1.72.
With RRIRNRPPRLPRPRPRPVVDPRP the figure was -0.274; with RRIRVRPPRLPRPRPRPLEYPRP, 0.0331; with RRIRYRPPRLPRPRPRPKWAPRP, -0.0552.
The value for RRIRARPPRLPRPRPRPNMQPRP was 0.18.
Take RRIRFRPPRLPRPRPRPLFSPRP: the “shrunken log2 fold change” value is -0.376.
As for RRIRVRPPRLPRPRPRPCERPRP, the “shrunken log2 fold change” value was -0.00992.
Consider RRIRPRPPRLPRPRPRPSYQPRP, for which the “shrunken log2 fold change” value was -0.493.
With RRIRWRPPRLPRPRPRPGGYPRP the figure was 0.215.
With RRIRDRPPRLPRPRPRPCKHPRP, the “shrunken log2 fold change” value is -0.181.
With RRIRQRPPRLPRPRPRPEVIPRP the figure was -0.00663.
The value for RRIRLRPPRLPRPRPRPKSLPRP was -0.467; that for RRIRPRPPRLPRPRPRPCWYPRP was -0.408.
With RRIRRRPPRLPRPRPRPIGSPRP the figure was 0.318; with RRIRVRPPRLPRPRPRPTCHPRP, -0.0606; with RRIRYRPPRLPRPRPRPPDLPRP, -0.212.
Regarding RRIRKRPPRLPRPRPRPLPFPRP, the “shrunken log2 fold change” value was -0.11.
As to RRIRRRPPRLPRPRPRPESYPRP, the “shrunken log2 fold change” value turned out to be 0.0503.
The value for RRIRMRPPRLPRPRPRPFQMPRP was -0.323; that for RRIRYRPPRLPRPRPRPFMYPRP was -1.14.
With RRIRCRPPRLPRPRPRPLNGPRP, the “shrunken log2 fold change” value is -0.444.
With RRIRWRPPRLPRPRPRPKDHPRP the figure was 0.182.
For the sequence RRIRNRPPRLPRPRPRPHLWPRP, the “shrunken log2 fold change” value came to 0.0922.
The value for RRIRVRPPRLPRPRPRPMRNPRP was -0.0233; that for RRIRYRPPRLPRPRPRPWSWPRP was 0.0225; that for RRIRTRPPRLPRPRPRPKRRPRP was 0.513.
The value for RRIRQRPPRLPRPRPRPDCDPRP was -0.0763; that for RRIRHRPPRLPRPRPRPGESPRP was -0.0414; that for RRIRMRPPRLPRPRPRPYLYPRP was -0.0828.
With RRIRYRPPRLPRPRPRPRSHPRP the figure was -0.267; with RRIRRRPPRLPRPRPRPPRAPRP, 1.17; with RRIRGRPPRLPRPRPRPYYEPRP, 0.0278.
Take RRIRKRPPRLPRPRPRPEPNPRP: the “shrunken log2 fold change” value worked out at 0.737.
For the sequence RRIRARPPRLPRPRPRPPYYPRP, the “shrunken log2 fold change” value amounted to 0.0635.
With RRIRFRPPRLPRPRPRPPKIPRP the figure was 0.145.
On to RRIRCRPPRLPRPRPRPSVEPRP, for which the “shrunken log2 fold change” value was 0.00103.
In the case of RRIRLRPPRLPRPRPRPWQNPRP, the “shrunken log2 fold change” value was -0.195.
The value for RRIRMRPPRLPRPRPRPECEPRP was 0.206; that for RRIRRRPPRLPRPRPRPLLWPRP was 0.421.
As to RRIRMRPPRLPRPRPRPKPSPRP, the “shrunken log2 fold change” value was 1.4.
With RRIRWRPPRLPRPRPRPQPVPRP the figure was 0.135.
As for RRIRCRPPRLPRPRPRPIPTPRP, the “shrunken log2 fold change” value was -0.0788.
With RRIRLRPPRLPRPRPRPGQRPRP the figure was 0.0889; with RRIRPRPPRLPRPRPRPGKFPRP, -0.385; with RRIRHRPPRLPRPRPRPDEKPRP, -0.00141.
The value for RRIRSRPPRLPRPRPRPNSIPRP was -0.861; that for RRIRHRPPRLPRPRPRPAAPPRP was 0.093; that for RRIRHRPPRLPRPRPRPCMIPRP was -0.277.
The value for RRIRRRPPRLPRPRPRPAPTPRP was 0.793.
As for RRIRLRPPRLPRPRPRPPGVPRP, the “shrunken log2 fold change” value was 0.426.
The value for RRIRWRPPRLPRPRPRPEQIPRP was 0.199; that for RRIRMRPPRLPRPRPRPTSAPRP was 0.74; that for RRIRRRPPRLPRPRPRPCIAPRP was -0.247.
The value for RRIRARPPRLPRPRPRPPGNPRP was 0.574.
For RRIRPRPPRLPRPRPRPISFPRP, the “shrunken log2 fold change” value was -0.101.
With RRIRQRPPRLPRPRPRPYYFPRP the figure was -0.661; with RRIRHRPPRLPRPRPRPFDNPRP, -0.0137; with RRIRIRPPRLPRPRPRPLSRPRP, -0.243.
On to RRIRNRPPRLPRPRPRPSIEPRP, for which the “shrunken log2 fold change” value was -0.214.
The value for RRIRNRPPRLPRPRPRPQYKPRP was -0.876.
On to RRIRPRPPRLPRPRPRPEHIPRP, for which the “shrunken log2 fold change” value amounted to 0.149.
With RRIRTRPPRLPRPRPRPYVQPRP the figure was -0.0752; with RRIRNRPPRLPRPRPRPDCWPRP, -0.0568; with RRIRDRPPRLPRPRPRPAHCPRP, -0.0402.
The value for RRIRQRPPRLPRPRPRPGCIPRP was -0.306.
On to RRIRARPPRLPRPRPRPHSWPRP, for which the “shrunken log2 fold change” value was 0.475.
For RRIRVRPPRLPRPRPRPRGNPRP, the “shrunken log2 fold change” value stood at 0.378.
RRIRHRPPRLPRPRPRPKYKPRP: the “shrunken log2 fold change” value was -0.679.
With RRIRRRPPRLPRPRPRPKEYPRP the figure was -0.0535; with RRIRYRPPRLPRPRPRPAEIPRP, -0.148.
With RRIRYRPPRLPRPRPRPVYAPRP, the “shrunken log2 fold change” value is -0.683.
In the case of RRIRPRPPRLPRPRPRPSYSPRP, the “shrunken log2 fold change” value was -0.149.
With RRIRTRPPRLPRPRPRPAACPRP the figure was 0.0816.
With RRIRGRPPRLPRPRPRPHEMPRP the figure was 0.143; with RRIRNRPPRLPRPRPRPVFNPRP, -0.242.
